Reference: patent US20230391852A1 (US Dept. of Health and Human Services, published 2023)
“And” between values parts separate entries of the source, which are not always exact repeats. Identical values can stand only once.

Experiments:
[1] = molecular target: T1, SARS-CoV S protein trimer expressed on human A431 cells (SARS-CoV, UniProt P59594 14-1255); test: flow cytometry on A431 cells expressing SARS-CoV S (A431-CoV-S)
T1 construct: whole, on cells; also called S protein of SARS-CoV

[2] = molecular target: T1, SARS-CoV S protein trimer expressed on …; test: flow cytometry on A431 cells expressing SARS-CoV S protein trimer (FIG. 3B)
SARS-CoV-2 S trimer = molecular target: T2, SARS-CoV-2 S trimer (SARS-CoV-2, UniProt P0DTC2 16-1213); test: monoclonal phage ELISA, drawn table of OD450 values
T2 construct: also called SARS-CoV-2 S protein; S homotrimer protein

SARS-CoV-2 RBD = SARS-CoV-2 RBD (SARS-CoV-2, UniProt P0DTC2 319-541); test: as above
SARS-CoV S1 = molecular target: T3, SARS-CoV S1 (SARS-CoV, UniProt P59594 14-667); test: ELISA, 1 µg/ml coated antigen, 1 µg/ml VHH-hFc
T3 construct: domain: S1; also called SARS-CoV S1 protein

[3] = molecular target: SARS-CoV-2 spike on pseudovirus (SARS-CoV-2, UniProt P0DTC2 14-1273); test: cell-based or functional assay
RBD-mFc [4] = molecular target: T4, RBD-mFc (SARS-CoV-2, UniProt P0DTC2 319-541)
BSA = molecular target: T5, BSA (UniProt P02769 25-607); test: ELISA, 1 µg/ml coated BSA, 1 µg/ml VHH-hFc
T5 construct: also called control protein
T5 sequence (P02769 25-607 limits assumed): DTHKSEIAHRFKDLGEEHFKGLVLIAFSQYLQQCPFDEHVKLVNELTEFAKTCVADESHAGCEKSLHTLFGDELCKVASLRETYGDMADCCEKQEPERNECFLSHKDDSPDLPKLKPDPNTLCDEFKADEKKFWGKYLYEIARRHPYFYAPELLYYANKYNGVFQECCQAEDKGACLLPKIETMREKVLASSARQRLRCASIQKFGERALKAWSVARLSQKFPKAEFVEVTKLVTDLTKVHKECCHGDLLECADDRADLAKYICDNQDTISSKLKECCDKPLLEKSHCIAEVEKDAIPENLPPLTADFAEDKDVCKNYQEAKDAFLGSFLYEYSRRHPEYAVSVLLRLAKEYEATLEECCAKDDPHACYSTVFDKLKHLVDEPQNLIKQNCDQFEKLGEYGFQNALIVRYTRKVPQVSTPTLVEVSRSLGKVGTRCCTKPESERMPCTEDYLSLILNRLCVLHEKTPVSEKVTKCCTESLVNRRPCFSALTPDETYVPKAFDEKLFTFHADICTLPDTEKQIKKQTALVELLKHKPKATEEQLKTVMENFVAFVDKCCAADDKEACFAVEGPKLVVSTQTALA

RBD-mFc [5] = molecular target: T4, RBD-mFc; remark: listed apart in the source

B1: 7A3 VHH-hFc (Fc fusion)
chain: QVQLVESGGGSVQPGGSLRLSCVVSGYTSSSRYMGWFRQVPGKGLEWVSGIKRDGTNTYYADSVKGRFTISQDNAKNTVYLQMNSLKPEDTAMYYCAAGSWYNQWGYSMDYWGKGTQVTVSS
notes: also called 7A3-hFc; NCI-CoV-7A3 VHH-hFc fusion protein
Kd (SARS-CoV-2): 200 pM | percent of cells right of the dashed gate line [1]: 92.1%

B2: 8A2 VHH-hFc (Fc fusion)
chain: AVQLVDSGGGSVQAGGSLRLSCAASGYTYSICTMGWYRQAPGEGLEWVSGINADGSNTHYTDSVKGRFTISRDNAKKTLYLQMNSLKPEDTAIYYCAAHGTYDKYAPCGGFAGTYTYWGQGTQVTVSS
notes: also called NCI-CoV-8A2 VHH-hFc
Kd (SARS-CoV-2): 260 pM | percent of cells right of the dashed gate line [1]: 59.2% | binding result [2]: no binding

B3: NCI-CoV-7E7 (VHH)
VHH: AVQLVDSGGGSVQSGGSLRLSCVASGYTYSIYNMGWFRQAPGKGLEWVSGINSDGSNTYYADSVKGRFTISRDNAKNTLYLQMNSLKSEDTALYYCATLPICSGGYCPPGYWGQGTQVTVSS
OD450 (SARS-CoV-2 S trimer): 0.57 | OD450 (SARS-CoV-2 RBD): 1

B4: 1H6 VHH-hFc (Fc fusion)
chain: AVQLVDSGGGSVQAGGSLNLSCVASGTTLRNGCMAWFRQVPGKEREVVAIIIRATSYTDYADSVKGRFTISQDNAKNTVYLQMKSLTPEDTATYYCAATLYRVNCAKREFDKWGQGTQVTVSS
notes: also called 1H6-hFc; NCI-CoV-1H6 VHH-hFc fusion protein
Kd (SARS-CoV-2): 37000 pM | binding result (SARS-CoV S1): no binding (tested: 1 µg/ml)

B5: 1B5 VHH-hFc (Fc fusion)
chain: DVQLVESGGGSVQAGGSLRLSCTGSRYTYSTYCMGWFRQAPGKEEEAVAIINSGGGEPYYGDSVKGRFTISQDRAKNTVYLQMDGLQPDDTAIYYCVAADSHNSRCYLGRSYVNYWGQGTQVTVSS
notes: also called 1B5-hFc; NCI-CoV-1B5 VHH-hFc fusion protein
Kd (SARS-CoV-2): 100 pM | percent of cells right of the dashed gate line [1]: 98.3% | IC50, SARS-CoV-2 spike pseudovirus neutralization on HEK 293T-hACE2 cells [3]: 6.6 nM and 0.55 µg/ml | IC50, SARS-CoV-2 spike pseudovirus neutralization, repeated assay (FIGS. 9A-9F) [3]: 7600 pM | IC50 (RBD-mFc [4]): < 0.001 µg/mL | binding result (BSA): no binding (tested: 1 µg/ml) | IC50 (read off the curve) (RBD-mFc [5]): ~0.3 µg/mL
